Measurements taken from patent US9181543 (OBODIES, dated 2015).

What was measured:
[1] = target: T1, BSA (Bos taurus, UniProt P02769); test: micropanning: monoclonal phage on BSA coated on a 96-well plate, bound phage eluted and counted
T1 construct: commercial protein; also called Bovine Serum Albumine

[2] = target: T2, RNaseA (Bos taurus, UniProt P61823); test: phage ELISA, multivalent display, immobilised RNaseA, anti-M13 antibody and HRP-conjugated secondary antibody, absorbance
T2 construct: commercial protein
T2 sequence (single chain, looked up): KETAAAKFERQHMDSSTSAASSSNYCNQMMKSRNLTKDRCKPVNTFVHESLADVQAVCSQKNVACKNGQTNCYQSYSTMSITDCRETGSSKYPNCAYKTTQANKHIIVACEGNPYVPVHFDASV
Description: (§1) Phage ELISA experiments were performed to analyse selected clones for binding to lysozyme. Ninety-six-well ELISA plates were coated with 5 ug/ml hen egg lysozyme, 5 ug/ml RNaseA or 1% BSA in PBS at 4° C. overnight. After two washes with TBS, plates were blocked with blocking buffer (5% skim milk in TBS) for one hour at RT before phage (10^9 cfu/well, derived from VCS-M13d3) were added in 2.5% skim milk-TBS-T. Plates were incubated for 2 hours at RT with agitation. After 10 washes with H_2O, mouse anti-M13 protein VIII diluted in blocking buffer was added and incubated for 1 h at RT. Plates were washed 4 times with H_2O and horseradish peroxidase (HRP)-coupled rabbit-anti-mouse immunoglobulins (Pierce) in blocking buffer were added to the wells and incubated for 1 h at RT. Wells were washed 4 times with H_2O and 50 ul substrate solution (1 mg/ml o-phenylene-diamine in PBS 0.030% H_2O_2) was added per well. The reaction was stopped after ~15 min by addition of 25 ul 2.5 M H_2SO_4 and the absorbance was recorded at 492 nm.
(§2) BSA (white), RNaseA (hatched) and hen egg white lysozyme (black) were immobilised and incubated with monoclonal phage samples. Bound particles were detected with a mouse anti-M13 primary antibody and an HRP-conjugated anti-mouse secondary antibody. […] Bound phage were eluted and counted by bacterial infection.

[3] = target: T3, hen egg white lysozyme (Gallus gallus, UniProt P00698 19-147); test: phage ELISA, multivalent display, immobilised hen egg white lysozyme, anti-M13 antibody and HRP-conjugated secondary antibody, absorbance
T3 construct: mature; The residue numbers E35, D52, W63, D101 and N103 fit mature numbering; also called hen egg lysozyme; Gallus gallus egg white lysozyme
Description: as §1, §2

[4] = target: T3, hen egg white lysozyme; test: SPR (Biacore), lysozyme amine-coupled to CM5 chip, L6 as analyte from 370 µM in 1:2 dilutions, steady-state response plot
Description: The ligand lysozyme was coupled to a CM5 Biacore sensor chip, at 30 µg/mL in sodium acetate buffer at pH 4.3 via the primary amine groups of the protein. The second of four flow cells available on the chip was activated with 35 µL, at 5 µL/min, of a 1:1 mixture of EDC:NHS (commercially available from Biacore). Lysozyme was coupled to the activated surface with successive injections of between 10-20 µL, until an adequate response was seen. Remaining uncoupled active groups on the chip were deactivated with an injection of ethanolamine-HCl. For analysis, OB3 13mRL L6 was organized in a 1:2 dilution series of six concentrations, beginning at 370 µM in running buffer, plus a buffer-only blank. Each of the seven samples were analyzed in duplicate for 1 min @ 25 µL/min, in random order, using the first flow cell as a reference. The response curves were visualized and processed using BIAevaluation (Biacore). Relative response at each concentration was averaged and plotted to determine Rmax and kD using Sigma Plot (Systat Software, Inc.).

[5] = target: T3, hen egg white lysozyme; test: surface plasmon resonance; L8, from the crystal-structure interface table
[6] = target: T3, hen egg white lysozyme; test: micropanning: monoclonal phage on lysozyme coated on a 96-well plate, bound phage eluted and counted by bacterial infection
Description: BSA (white), RNaseA (hatched) and hen egg white lysozyme (black) were immobilised and incubated with monoclonal phage samples. Bound particles were detected with a mouse anti-M13 primary antibody and an HRP-conjugated anti-mouse secondary antibody. […] A 96-well plate was coated with lysozyme (black bars) or BSA (white bars) and incubated with monoclonal phage samples from clones picked after 6 rounds of selection. Bound phage were eluted and counted by bacterial infection.
Hen egg white lysozyme is a small stable protein which is commercially available and has a number of medically important human homologues. After four rounds of panning on immobilised lysozyme, enrichment of bound phage was observed. A further two more rounds of panning were performed before clones were randomly picked and screened for binding to lysozyme. Monoclonal phage samples were then prepared and studies were undertaken to characterize binding in a 'micropanning' approach on lysozyme immobilised on a 96-well ELISA plate. Bound phage were eluted and counted. […] These clones were sequenced. Sequences for some of the clones were identical (L14 and L15; L4 and L18; L8 and L21) narrowing down the number of unique clones to six.

[7] = target: T3, hen egg white lysozyme; test: phage ELISA on immobilised lysozyme, multivalent display
[8] = target: T1, BSA; test: phage ELISA, immobilised BSA, anti-M13 antibody and HRP-conjugated secondary antibody, absorbance
[9] = target: T2, RNaseA; test: phage ELISA, immobilised RNaseA, anti-M13 antibody and HRP-conjugated secondary antibody, absorbance

T1 sequence (P02769 25-607 limits assumed): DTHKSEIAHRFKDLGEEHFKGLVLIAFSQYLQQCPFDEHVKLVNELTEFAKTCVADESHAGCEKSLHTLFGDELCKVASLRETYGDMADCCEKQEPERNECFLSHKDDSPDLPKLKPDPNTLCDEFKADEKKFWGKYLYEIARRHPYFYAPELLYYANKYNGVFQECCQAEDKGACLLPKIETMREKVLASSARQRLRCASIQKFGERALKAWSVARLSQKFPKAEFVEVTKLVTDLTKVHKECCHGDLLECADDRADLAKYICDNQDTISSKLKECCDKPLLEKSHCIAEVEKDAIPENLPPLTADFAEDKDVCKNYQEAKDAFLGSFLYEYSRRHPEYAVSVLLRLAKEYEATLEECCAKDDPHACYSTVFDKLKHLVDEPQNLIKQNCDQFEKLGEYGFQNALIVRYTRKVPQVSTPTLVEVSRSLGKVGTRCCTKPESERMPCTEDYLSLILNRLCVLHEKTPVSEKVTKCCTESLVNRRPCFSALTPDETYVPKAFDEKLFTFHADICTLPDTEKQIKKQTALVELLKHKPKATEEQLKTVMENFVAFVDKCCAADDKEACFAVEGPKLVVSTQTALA
T3 sequence (P00698 19-147): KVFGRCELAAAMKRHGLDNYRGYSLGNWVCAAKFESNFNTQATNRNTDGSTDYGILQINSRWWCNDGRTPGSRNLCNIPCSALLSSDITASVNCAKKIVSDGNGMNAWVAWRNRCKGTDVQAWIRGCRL

B1: L14 (aspRS-OB 13mRL mutant) displayed on phage as pIII fusion (designed binder)
chain: VYPKKTHWTAEITPNLHGTEVVVAGWVSDLLDAGRAKYVFVYDREGGAEVMVTLAAGKTPDHLFKVFAELSREDVVVIKGIVEASKGWRDGVEIFPSEIWILNKAKPLPID
notes: Monoclonal phage; also called L15; L32; not shown: c-myc tag and pIII of phagemid pRPSP2 (display carriers at the C end)
binding result [1]: no binding | binding result [2]: binds | binding result [3]: binds

B2: L5 (aspRS-OB 13mRL mutant) displayed on phage as pIII fusion (designed binder)
chain: VYPKKTHWTAEITPNLHGTEVVVAGWVTDLVDAGTWKFVQVADREGGANVWVSLVAGKTPDHLFKVFAELSREDVVVIKGIVEASKLPSYGVEIFPSEIWILNKAKPLPID
notes: Monoclonal phage; Monovalent display in micropanning, multivalent display in ELISA; not shown: c-myc tag and pIII of phagemid pRPSP2 (display carriers at the C end)
binding result [1]: no binding | binding result [3]: binds

B3: L6 (aspRS-OB 13mRL mutant) displayed on phage as pIII fusion (designed binder)
chain: VYPKKTHWTAEITPNLHGTEVVVAGWVEDLVDAGKTKWVFVCDREGGAQVIVELVAGKTPDHLFKVFAELSREDVVVIKGIVEASKSRAVGVEIFPSEIWILNKAKPLPID
notes: as for B2
binding result [1]: no binding

B4: OB3 13mRL L6, expressed and purified (designed binder)
chain: B3 chain
notes: Analyte in the Biacore experiment; also called Clone L6; selected OB-fold domain L6
Kd [4]: 36 µM

B5: L8 (aspRS-OB 13mRL mutant) displayed on phage as pIII fusion (designed binder)
chain: VYPKKTHWTAEITPNLHGTEVVVAGWVASLGDYGRVKIVKVSDREGGAAVPVYLEAGKTPDHLFKVFAELSREDVVVIKGIVEASKGVGRGVEIFPSEIWILNKAKPLPID
notes: Monoclonal phage; also called L21; L33; not shown: c-myc tag and pIII of phagemid pRPSP2 (display carriers at the C end)
binding result [1]: no binding

B6: OBody L8, purified, GST tag removed (designed binder)
chain: B5 chain
notes: GST tag removed with rTEV protease; Used for co-crystallisation with lysozyme
Kd [5]: 36 µM

B7: L16 (aspRS-OB 13mRL mutant) displayed on phage as pIII fusion (designed binder)
chain: VYPKKTHWTAEITPNLHGTEVVVAGWVASLVDGGPRKWVFVRDREGGAEVTVELTAGKTPDHLFKVFAELSREDVVVIKGIVEASKGLRWGVEIFPSEIWILNKAKPLPID
notes: Monoclonal phage, monovalent display, micropanning only; not shown: c-myc tag and pIII of phagemid pRPSP2 (display carriers at the C end)
binding result [1]: no binding | binding result [6]: binds

B8: L34 (aspRS-OB 13mRL mutant) displayed on phage as pIII fusion (designed binder)
chain: VYPKKTHWTAEITPNLHGTEVVVAGWVVGLMDEGALKGVEVRDREGGAPVEVTLEAGKTPDHLFKVFAELSREDVVVIKGIVEASKGYGSGVEIFPSEIWILNKAKPLPID
notes: Monoclonal phage, multivalent display, ELISA; not shown: c-myc tag and pIII of phagemid pRPSP2 (display carriers at the C end)
binding result [7]: binds | binding result [8]: no binding (tested: 10^9 cfu/well) | binding result [9]: no binding (tested: 10^9 cfu/well)
